This note sets out measurements from publication PMC12746484, “Growth-coupled selection of 5-aminolevulinic acid synthetase mutants for 5-aminolevulinic acid biosynthesis in Corynebacterium glutamicum” (Frontiers in Microbiology, 2025).

The subject of one series is T1, NCC(=O)O.
T1 construct: codon-optimized hemA cloned in pET28a, expressed in E. coli BL21(DE3), Ni-NTA purified
Description: steady-state kinetics, 5-ALA formation, nonlinear Michaelis-Menten fit. The note with it: 37 °C, Tris pH 7.5, pyridoxal phosphate, co-substrate succinyl-CoA, glycine 1-40 mM. The format is biochemical, Rhodobacter capsulatus. An excerpt: (§1) steady-state kinetics, 5-ALA formation, nonlinear Michaelis-Menten fit on ALAS from Rhodobacter capsulatus SB1003 (hemA^Rc; pET28a-SB)

The subject of series [1] is T2, CC(C)(COP(=O)(O)OP(=O)(O)OC[C@H]1O[C@@H](n2cnc3c(N)ncnc32)[C@H](O)[C@@H]1OP(=O)(O)O)[C@@H](O)C(=O)NCCC(=O)NCCSC(=O)CCC(=O)O.
T2 construct: codon-optimized hemA cloned in pET28a, expressed in E. coli BL21(DE3), Ni-NTA purified
The description is as above. The format is biochemical, Rhodobacter capsulatus. The note with it: 37 °C, Tris pH 7.5, pyridoxal phosphate, co-substrate glycine, succinyl-CoA 5-150 μM.
From the text: as §1

Sequence of ALAS from Rhodobacter capsulatus SB1003 (hemA^Rc; pET28a-SB) (Rhodobacter capsulatus SB 1003) (chain, as listed by the source): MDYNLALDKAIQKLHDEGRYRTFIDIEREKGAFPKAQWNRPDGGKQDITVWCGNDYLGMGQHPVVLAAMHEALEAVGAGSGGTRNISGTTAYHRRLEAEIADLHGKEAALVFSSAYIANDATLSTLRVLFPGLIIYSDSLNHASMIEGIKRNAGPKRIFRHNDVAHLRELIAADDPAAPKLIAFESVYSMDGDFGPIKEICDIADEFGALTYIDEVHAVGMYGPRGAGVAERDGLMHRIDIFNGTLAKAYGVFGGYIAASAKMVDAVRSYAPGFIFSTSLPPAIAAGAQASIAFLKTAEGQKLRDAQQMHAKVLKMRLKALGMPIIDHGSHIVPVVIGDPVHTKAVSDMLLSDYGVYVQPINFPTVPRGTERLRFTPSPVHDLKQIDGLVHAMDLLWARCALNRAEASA
Sequence of ALAS from Rhodobacter capsulatus SB1003 (hemA^Rc; pET28a-SB) (Rhodobacter capsulatus SB 1003; E27V/F363Y/G105C) (chain, as listed by the source E27V F363Y G105C): as the sequence (chain, as listed by the source) above, with E27V, G105C, F363Y counted along it

“ALAS from Rhodobacter capsulatus SB1003 (hemA^Rc; pET28a-SB) (Rhodobacter capsulatus SB 1003)”: in the series with NCC(=O)O, the Km was 2660 ± 260 µM, the kcat was 2.52 ± 0.22 s⁻¹ and the catalytic efficiency (kcat/Km) came out at 950 ± 230 M⁻¹ s⁻¹. Also, in series [1], the Michaelis constant (Km) was found to be 17.5 ± 2.65 µM, the kcat came to 2.52 ± 0.22 s⁻¹ and the kcat/Km is 140000 ± 30000 M⁻¹ s⁻¹.

Regarding “ALAS from Rhodobacter capsulatus SB1003 (hemA^Rc; pET28a-SB) (Rhodobacter capsulatus SB 1003; E27V/F363Y/G105C)”, in the series with NCC(=O)O, the Michaelis-Menten constant (Km) turned out to be 2130 ± 220 µM, the kcat came out at 2.94 ± 0.15 s⁻¹ and the specificity constant (kcat/Km) worked out at 1270 ± 180 M⁻¹ s⁻¹. For the same substance, in series [1], the Michaelis constant (Km) is 16.88 ± 2.21 µM, the kcat is 2.94 ± 0.15 s⁻¹ and the specificity constant (kcat/Km) came out at 170000 ± 20000 M⁻¹ s⁻¹.
